According to patent US20200317758A1 (published 2020):

T1: recombinant derivative of the LukE protein (SEQ ID NO: 826) with amino-terminal poly-histidine affinity tag (UniProt Q2FXB0 24-306)
T1 chain: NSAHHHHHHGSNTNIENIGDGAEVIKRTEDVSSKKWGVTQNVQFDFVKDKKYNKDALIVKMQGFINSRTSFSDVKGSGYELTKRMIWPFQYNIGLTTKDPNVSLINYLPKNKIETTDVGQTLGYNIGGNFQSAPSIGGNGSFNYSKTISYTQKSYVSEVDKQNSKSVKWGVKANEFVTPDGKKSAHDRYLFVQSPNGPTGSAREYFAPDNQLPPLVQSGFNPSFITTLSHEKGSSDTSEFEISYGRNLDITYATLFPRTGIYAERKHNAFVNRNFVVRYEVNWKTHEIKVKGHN

T2: recombinant toxoid variant of the LukAB protein (LukA E323A) with poly-histidine and streptavidin binding … (UniProt Q2FFA2 31-351; P21224 30-338)
T2 chain 1: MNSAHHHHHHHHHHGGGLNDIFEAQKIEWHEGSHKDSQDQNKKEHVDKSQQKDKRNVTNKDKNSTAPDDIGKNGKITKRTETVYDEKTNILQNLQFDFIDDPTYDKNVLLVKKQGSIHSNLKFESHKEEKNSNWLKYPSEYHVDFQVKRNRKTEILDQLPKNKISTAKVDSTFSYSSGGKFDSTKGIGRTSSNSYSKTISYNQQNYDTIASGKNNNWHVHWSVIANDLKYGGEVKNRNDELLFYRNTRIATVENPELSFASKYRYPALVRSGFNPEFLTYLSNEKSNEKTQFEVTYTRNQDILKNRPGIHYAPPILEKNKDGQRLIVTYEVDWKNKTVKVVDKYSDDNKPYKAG
T2 chain 2: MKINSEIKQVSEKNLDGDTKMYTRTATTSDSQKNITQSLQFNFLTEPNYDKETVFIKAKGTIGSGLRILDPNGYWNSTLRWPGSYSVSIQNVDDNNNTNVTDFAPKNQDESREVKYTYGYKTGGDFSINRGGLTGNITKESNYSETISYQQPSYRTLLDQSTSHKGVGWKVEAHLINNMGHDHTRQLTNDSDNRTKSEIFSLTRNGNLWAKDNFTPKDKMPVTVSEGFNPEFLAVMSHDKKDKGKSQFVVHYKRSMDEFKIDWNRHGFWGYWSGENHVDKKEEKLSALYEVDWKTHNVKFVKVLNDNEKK

T3: recombinant derivative of the LukD protein (SEQ ID NO: 824) with amino-terminal polyhistidine affinity tag, … (UniProt Q2FXB1 27-327, chemically biotinylated in vitro (sites not given))
T3 chain: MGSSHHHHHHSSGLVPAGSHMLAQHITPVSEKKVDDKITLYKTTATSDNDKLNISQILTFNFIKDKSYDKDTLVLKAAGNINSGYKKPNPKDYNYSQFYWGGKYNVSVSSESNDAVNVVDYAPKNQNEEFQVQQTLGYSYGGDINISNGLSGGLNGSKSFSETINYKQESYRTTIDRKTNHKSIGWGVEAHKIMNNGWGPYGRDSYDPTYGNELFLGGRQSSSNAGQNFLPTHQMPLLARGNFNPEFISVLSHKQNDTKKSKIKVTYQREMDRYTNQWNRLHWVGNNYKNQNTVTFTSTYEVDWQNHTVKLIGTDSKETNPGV


How the values were obtained:
[1] = target: T1, recombinant derivative of the LukE …; assay: BLI; Step C (first mAb), right panel
[2] = target: T1, recombinant derivative of the LukE …; assay: BLI; Step E (after SM1B332), right panel
[3] = target: T1, recombinant derivative of the LukE …; assay: BLI; Step C (first mAb), left panel
[4] = target: T1, recombinant derivative of the LukE …; assay: BLI; Step E (after SM1B332), left panel
[5] = target: T2, recombinant toxoid variant of the LukAB …; assay: BLI; Step E (after SM1B249)
[6] = target: T2, recombinant toxoid variant of the LukAB …; assay: BLI; Step C (first mAb)
[7] = target: T2, recombinant toxoid variant of the LukAB …; assay: BLI; Step E (after SM1B245)
[8] = target: T3, recombinant derivative of the LukD …; assay: BLI; Step E (after SM1B221)

Binder | Kd [2] | Kd [4] | Kd [7] | further results
anti-LukE mAb SM1B332 (antibody, V domains shown) VH: QVQLKESGPGLVAPSQSLSITCTVSGLSLTSYGLSWVRQPPGKGLEWLGVIWGDGSTNYHSALISRLSISKDNSKSQVFLKLNSLQSDDTATYYCATRGDYGSYAMDYWGQGTSVTVSS VL: QIVLTQSPAIMSASPGEKVTLTCSASSSVSSSYLFWYQQKPGSSPKLWIYSTSNLASGVPVRFSGSGFGTSYSLTISRMEAEDAASYFCHQWSSYPPTFGAGTKLELKR | 4.9 nM | 4.9 nM |  | Kd [1]: 1.47 nM; Kd [3]: 1.38 nM
anti-LukAB mAb SM1B245 (antibody, V domains shown) VH: QVQLQQSGAELAKPGASVKMSCKSSGYTFSTYWMHWVKQRPGQGLEWIGYINPNTGYTEYNQKFKDTATLTADKSSSTAYMQLSSLTSEDSAVYYCARGGSKAFPYYAMDYWGQGTSVTVSS VL: DIVLTQSPASLAVSLGQRATMSCRASESVDGYGNSFLHWYQQKPGQPPKLLIYRASNLESGIPARFSGTGSRTDFTLTITPVEADDVATYYCQQSNGDPFTFGSGTKLEIKR |  |  | 11.5 nM | Kd [5]: 1.31 nM; Kd [6]: 0.656 nM
anti-LukAB mAb SM1B111 (antibody, V domains shown) VH: EVQLQQSGAELVKPGASVKISCKASGYAFSSSWMNWLKQRPGKGLEWIGRIYPGDGDTNYNGKFKGKATLTADKSSSTAYMQLSSLTSEDSAVYFCARYGYDYDGEYYYAMDYWGQGTSVTVSS VL: DIVMTQSPTTMAASPGERITITCSAHSNLISNYLHWYQQKPGFSPKLLIYRTSNLASGVPARFSGSGSGTSYSLTIGTMEAEDVATYFCQQGSSIPFTFGSGTKLEIKR |  |  | 4.53 nM | 
anti-LukE mAb SM1B507 (antibody) heavy: EVQLQQSGAELVKPGASVKMSCKASGYTFTDYYMDWVKQSHGKSFEWIGHVNPYNGDTRYNQKFKGKATLTVDKSSTTAYMELNSLTSEDSAVYYCARGNFFDYWGQGTTLSVSSAKTTPPSVYPLAPGSAAQTNSMVTLGCLVKGYFPEPVTVTWNSGSLSSGVHTFPAVLESDLYTLSSSVTVPSSPRPSETVTCNVAHPASSTKVDKKIVPRDCGCKPCICTVPEVSSVFIFPPKPKDVLTITLTPKVTCVVVDISKDDPEVQFSWFVDDVEVHTAQTQPREEQFNSTFRSVSELPIMHQDWLNGKEFKCRVNSAAFPAPIEKTISKTKGRPKAPQVYTIPPPKEQMAKDKVSLTCMITDFFPEDITVEWQWNGQPAENYKNTQPIMNTNGSYFVYSKLNVQKSNWEAGNTFTCSVLHEGLHNHHTEKSLSHSPGK light: DIVMTQSPAIMSASPGEKVTIPCSASSSVSYMHWFQQKPGTSPKLWIYSTSNLASGVPGRFSGSGSGTSYSLTISRMEAEDAATYYCQQRSNYPLTFGAGTKLELKRADAAPTVSIFPPSSEQLTSGGASVVCFLNNFYPKDINVKWKIDGSERQNGVLNSWTDQDSKDSTYSMSSTLTLTKDEYERHNSYTCEATHKTSTSPIVKSFNRNEC | 3.52 nM |  |  | 
anti-LukE mAb SM1B318 (antibody, V domains shown) VH: QVQLQQSGAELMNPGASVKISCKSTGYKFSSYWIEWVKQRPGHGLEWMGEILPGSGSTNHNEKFKGKAIFTADASSNTAYMELSSLTSEDSAVYYCARTISTATDWFAYWGQGTLVTVSA VL: DVLMTQTPLSLPVSLGDQASISCRSSQTIVYSDGNTYLEWYLQKPGQSPKLLIYKVSNRFSGVPDRVSGSGSGTDFTLKISRVEAEDLGVYYCFQGSHVPYTFGGGTKLEIKR |  | 5.04 nM |  | 
antibody SM1B225 (antibody, V domains shown) VH: EVQLQQSGGGLVKPGGSLKLSCAASGFTFSSYAMSWVRQTPEKRLEWVATITGGGTYTYYLDSVKGRFTISRDNAKTSLYLQMSSLRSEDTAMYYCARHRDGNYGCFDVWGAGTTVTVSS VL: DIVLTQSPAIMSASLGERVTMTCTASSSVSSSYLHWYQQKPGSSPKLWVYSTSNLASGVPARFSGSGSGSSYSLTISSMEPEDTATYYCHQYHRSPQTFGGGTKLEIKR |  |  |  | Kd [8]: 4.67 nM
